Laboratory results taken from publication PMC10828781, “Genome variation and LTR-RT analyses of an ancient peach landrace reveal mechanism of blood-flesh fruit color formation and fruit maturity date advancement”.

Target: PpBL (Prunus persica, UniProt M5WDM1 1-437)
Assay: EMSA; 5x, 10x, 50x competitor probe; EMSA: room temperature 30 min, 6% native PAGE in 0.5x TBE at 4 C, 60 V 1 h, binding buffer not stated; pull-down: 1 ug DNA-bead complex with 300 ul nuclear proteins, 20 min room temperature
Conditions: protein: recombinant; (pGEX-6p-1 vector); label: biotin

PpBL, sequence (M5WDM1 entry or part of it): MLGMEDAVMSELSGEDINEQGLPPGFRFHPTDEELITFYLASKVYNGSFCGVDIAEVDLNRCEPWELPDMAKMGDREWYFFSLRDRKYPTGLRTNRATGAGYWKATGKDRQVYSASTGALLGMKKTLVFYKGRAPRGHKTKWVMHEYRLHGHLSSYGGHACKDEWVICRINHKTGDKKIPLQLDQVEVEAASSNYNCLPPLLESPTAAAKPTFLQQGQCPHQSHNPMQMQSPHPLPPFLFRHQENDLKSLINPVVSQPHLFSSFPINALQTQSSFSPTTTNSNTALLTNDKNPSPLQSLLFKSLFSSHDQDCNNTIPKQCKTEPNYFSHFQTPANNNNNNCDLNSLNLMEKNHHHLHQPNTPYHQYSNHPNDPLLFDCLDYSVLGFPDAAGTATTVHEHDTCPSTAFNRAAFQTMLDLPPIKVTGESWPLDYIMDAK

Binder | binding result
PpACS1 promoter probe (dsDNA) DNA 1: TACAACACGCAAGCAATTAC DNA 2: GTAATTGCTTGCGTGTTGTA | binds
PpACO1 promoter probe (dsDNA) DNA 1: ACAGTAATTTGCTTGCTTTC DNA 2: GAAAGCAAGCAAATTACTGT | binds
